{"source": "paper PMC3075490", "target": "T1, [4Fe-4S]-NsrR-His6 (anaerobically purified) (Bacillus subtilis (JH642 background), UniProt O07573 1-146)", "T1 sequence": "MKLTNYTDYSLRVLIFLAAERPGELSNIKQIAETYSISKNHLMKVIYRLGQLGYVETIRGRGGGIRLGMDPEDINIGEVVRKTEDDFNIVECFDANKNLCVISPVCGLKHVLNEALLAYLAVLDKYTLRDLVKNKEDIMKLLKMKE", "assay": "EMSA"}
{"binder": "GCATAACATGTATCTTAAATATTCCTTTCG (ssDNA)", "note": "[nasD coding strand 30-mer oMN09-489]", "values": [{"measurement": "binding result", "result": "no binding"}]}
